Literature values, collected in article PMC2586657.

Molecular target: alpha-factor (Saccharomyces cerevisiae) (UniProt P01149)

Which Kd does the source give for “alpha-factor receptor (from UniProt D6VTK4)” here?
The Kd was 5 nM.
